Experimental data: patent publication US20240239894A1, “THERAPEUTIC BINDING MOLECULES” (MedImmune Limited, priority 2020, published 2024)

What was measured:
[1] = target: human B7-H4 on cells (human) (UniProt Q7Z7D3); assay: flow cytometry, AF647-labelled antibody at 156 ng/ml, HT29 cells expressing hB7-H4
[2] = target: T1, Human B7-H4-Fc (Human B7H4 ECD, Fc_6His) (human); assay: ELISA on coated human B7H4/Fc, absorbance 450 nm, [IgG] 0.006 to 100 nM
T1 sequence (Q7Z7D3 whole entry, looked up): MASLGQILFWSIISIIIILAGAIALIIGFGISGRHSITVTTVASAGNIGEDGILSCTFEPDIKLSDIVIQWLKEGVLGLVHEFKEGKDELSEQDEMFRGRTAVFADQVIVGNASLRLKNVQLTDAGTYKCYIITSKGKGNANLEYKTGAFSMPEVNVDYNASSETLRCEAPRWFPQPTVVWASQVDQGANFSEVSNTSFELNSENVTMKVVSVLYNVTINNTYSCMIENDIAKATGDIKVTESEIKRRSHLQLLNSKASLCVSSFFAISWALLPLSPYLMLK

B1: 1D11 (Genentech anti-B7-H4 mAb) (antibody, from another filing, V domains shown)
VH: QVQLQQSGAELVRPGTSVKMSCKASGYTFTSYWIGWAKQRPGHGFEWIGDIYPGGGYTNYNEKFKGKATLTADKSSSTAYMQFSSLTSEDSAIYYCARLDGSSYRGAMDSWGQGTSITVSS
VL: DIQMTQSPSSLSASLGGKVTITCKASQGFNKYVAWYQHKPGQCPRLLIHYTSTLQPGIPARFSGSGSGRDYSFSISNLEPEDSATYFCLQYGNLLYAFGGGTKLEIKR
Which Geometric Mean : Comp-APC-A [1] does the source give for B1 here?
The Geometric Mean : Comp-APC-A was 1200.

And the EC50 (read off the curve) [2]?
Its EC50 (read off the curve) is 5 nM.
